According to patent US20190309093A1 (Y BIOLOGICS, published 2019):

T1: hCD3εγ chains
T1 construct: copies: 1 + 1
T1 epsilon: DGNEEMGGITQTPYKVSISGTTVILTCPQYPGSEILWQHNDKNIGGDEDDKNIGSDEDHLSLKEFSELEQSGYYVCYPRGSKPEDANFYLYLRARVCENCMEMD
T1 gamma: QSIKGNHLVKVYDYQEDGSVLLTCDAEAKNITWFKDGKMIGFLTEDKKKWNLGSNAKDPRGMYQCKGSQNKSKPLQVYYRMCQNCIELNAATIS


Experiments:
hCD3εγ chains = biological target: T1, hCD3εγ chains; test: ELISA on hCD3εγ chains, fit value of a flat curve, unit taken from the x axis Antibody [nM]
[1] = biological target: T2, CD3 on Jurkat luciferase reporter cells (UniProt P07766 23-207); test: flow cytometry of Jurkat_NFAT_Luc2P cells, FITC-A; fold over hIgG
T2 construct: whole, on cells; also called CD3 positive Jurkat cell line with NFAT luciferase reporter

Row | Binder | Kd (hCD3εγ chains) [nM] | Fold [1]
1 | ACE-05 (bispecific antibody, The Fab regions are bivalent for PD-L1 and the Fv is monovalent for CD3; also called ALiCE molecule ACE-05) heavy 1: not shown heavy 2: not shown light: QLVLTQPPSVSGAPGQRVTISCTGSSSNIGAGYDVHWYQQLPGAAPKLLIYGDINRPSGVPDRFSGSKSGISASLAITGLQAEDEADYYCQSYDSSLSGGVFGGGTKLTVLRTVAAPSVFIFPPSDEQLKSGTASVVCLLNNFYPREAKVQWKVDNALQSGNSQESVTEQDSKDSTYSLSSTLTLSKADYEKHKVYACEVTHQGLSSPVTKSFNRGEC | 0.035 | 
2 | UCHT1 (antibody, V domains shown, Bought antibody) VH: EVQLQQSGPELVKPGPSMKISCKASGYSFTGYTMNWVKQSHGKNLEWMGLINPYKGVSTYNQKFKDKATLTVDKSSSTAYMELLSLTSEDSAVYYCARSGYYGDSDWYFDVWGQGTTLTVFS VL: DIQMTQTTSSLSASLGDRVTISCRASQDIRNYLNWYQQKPDGTVKLLIYYTSRLHSGVPSKFSGSGSGTDYSLTISNLEQEDIATYFCQQGNTLPWTFAGGTKLEIKR |  | 35
